{
  "source": "patent EP1506972A1",
  "about": "(Genentech Inc., dated 2005)",
  "binders": {"B1": {"name": "human IGFBP-1 (other, UniProt P08833 26-259, looked up)", "chain": "APWQCAPCSAEKLALCPPVSASCSEVTRSAGCGCCPMCALPLGAACGVATARCARGLSCRALPGEQQPLHALTRGQGACVQESDASAPHAAEAGSPESPESTEITEEELLDNFHLMAPSEEDHSILWDAISTYDGSKALHVTNIKKWKEPCRIELYRVVESLAKAQETSGEEISKFYLPNCNKNGFYHSRQCETSMDGEAGLCWCVYPWNGKRIPGSPEIRGDPNCQIYFNVQN", "notes": "Secreted recombinant protein"}},
  "assay_in_all_cases": "competitive phage ELISA, soluble IGFBP-1 vs coated IGFBP-1",
  "key": {"[1]": {"molecular_target": "T1, IGF-I Y60A (G1S-A70V background) displayed on phage (human; bacteriophage M13)", "T1 construct": "not shown: M13 gene III fragment (residues 249-406), the display partner, and its junction to IGF-I", "T1 chain": "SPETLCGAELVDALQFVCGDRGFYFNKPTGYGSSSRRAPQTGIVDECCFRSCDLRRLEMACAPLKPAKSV"}, "[2]": {"molecular_target": "T2, IGF-I S1G (single mutant of G1S-A70V) displayed on phage (human; bacteriophage M13, UniProt P05019 49-117)", "T2 construct": "not shown: Display carrier: M13 gene III protein fragment (residues 249-406) and its junction to Val70"}, "[3]": {"molecular_target": "T3, IGF-I T29A (G1S-A70V background) displayed on phage (human; bacteriophage M13)", "T3 construct": "not shown: Display carrier: M13 gene III protein fragment (residues 249-406) and the junction to it", "T3 chain": "T1 chain with T29A, A60Y"}, "[4]": {"molecular_target": "T4, des(1-2)-IGF-I displayed on phage (human; bacteriophage M13)", "T4 construct": "range 249-406; Lacks positions 1 and 2"}, "[5]": {"molecular_target": "T5, IGF-I T4A (G1S-A70V background) displayed on phage (human; bacteriophage M13)", "T5 construct": "not shown: The display carrier: M13 gene III protein fragment (residues 249-406) and the junction to it", "T5 chain": "T1 chain with T4A, A60Y"}, "[6]": {"molecular_target": "T6, IGF-I L5A (G1S-A70V background) displayed on phage (human; bacteriophage M13)", "T6 construct": "not shown: The display carrier: M13 gene III protein fragment (residues 249-406) and the junction to it", "T6 chain": "T1 chain with L5A, A60Y"}, "[7]": {"molecular_target": "T7, IGF-I L57A (G1S-A70V background) displayed on phage (human; bacteriophage M13)", "T7 construct": "not shown: M13 gene III fragment (residues 249-406), the display partner, and its junction to IGF-I", "T7 chain": "T1 chain with L57A, A60Y"}, "[8]": {"molecular_target": "T8, IGF-I S33A (G1S-A70V background) displayed on phage (human; bacteriophage M13)", "T8 construct": "not shown: Display carrier: M13 gene III protein fragment (residues 249-406) and the junction to it", "T8 chain": "T1 chain with S33A, A60Y"}, "[9]": {"molecular_target": "T9, IGF-I P63A (G1S-A70V background) displayed on phage (human; bacteriophage M13)", "T9 construct": "not shown: M13 gene III fragment (residues 249-406), the display partner, and its junction to IGF-I", "T9 chain": "T1 chain with A60Y, P63A"}, "[10]": {"molecular_target": "T10, IGF-I K27A (G1S-A70V background) displayed on phage (human; bacteriophage M13)", "T10 construct": "not shown: Display carrier: M13 gene III protein fragment (residues 249-406) and the junction to it", "T10 chain": "T1 chain with K27A, A60Y"}, "[11]": {"molecular_target": "T11, IGF-I D45A (G1S-A70V background) displayed on phage (human; bacteriophage M13)", "T11 construct": "not shown: Display carrier: M13 gene III protein fragment (residues 249-406) and the junction to it", "T11 chain": "T1 chain with D45A, A60Y"}, "[12]": {"molecular_target": "T12, IGF-I Y31A (G1S-A70V background) displayed on phage (human; bacteriophage M13)", "T12 construct": "not shown: Display carrier: M13 gene III protein fragment (residues 249-406) and the junction to it", "T12 chain": "T1 chain with Y31A, A60Y"}, "[13]": {"molecular_target": "T13, IGF-I E9A (G1S-A70V background) displayed on phage (human; bacteriophage M13)", "T13 construct": "not shown: M13 gene III fragment (residues 249-406, display carrier) and the IGF-g3 junction", "T13 chain": "T1 chain with E9A, A60Y"}, "[14]": {"molecular_target": "T14, IGF-I V70A (single mutant of G1S-A70V) displayed on phage (human; bacteriophage M13)", "T14 construct": "not shown: Display carrier: M13 gene III protein fragment (residues 249-406) and its junction to residue 70"}, "[15]": {"molecular_target": "T15, IGF-I S1A (G1S-A70V background) displayed on phage (human; bacteriophage M13)", "T15 construct": "range 249-406; the result is Ala 1"}, "[16]": {"molecular_target": "T16, IGF-I F16A (G1S-A70V background) displayed on phage (human; bacteriophage M13)", "T16 construct": "not shown: M13 gene III fragment (residues 249-406, display carrier) and the IGF-g3 junction", "T16 chain": "T1 chain with F16A, A60Y"}, "[17]": {"molecular_target": "T17, IGF-I S69A (G1S-A70V background) displayed on phage (human; bacteriophage M13)", "T17 construct": "not shown: Display carrier: M13 gene III protein fragment (residues 249-406) and its junction to Val70"}, "[18]": {"molecular_target": "T18, IGF-I M59A (G1S-A70V background) displayed on phage (human; bacteriophage M13)", "T18 construct": "not shown: M13 gene III fragment (residues 249-406), the display partner, and its junction to IGF-I", "T18 chain": "T1 chain with M59A, A60Y"}},
  "note": "Changes are numbered by the printed parent chain.",
  "data": [
    {"binder": "B1", "values": [
      {"measurement": "relative IC50 (IC50mut/IC50 G1S-A70V)", "setting": "[1]", "result": 0.8, "unit": "fold"},
      {"measurement": "relative IC50 (IC50mut/IC50 G1S-A70V)", "setting": "[2]", "result": 1.4, "unit": "fold"},
      {"measurement": "relative IC50 (IC50mut/IC50 G1S-A70V)", "setting": "[3]", "result": 0.9, "unit": "fold"},
      {"measurement": "relative IC50 (IC50mut/IC50 G1S-A70V)", "setting": "[4]", "result": 0.6, "unit": "fold"},
      {"measurement": "relative IC50 (IC50mut/IC50 G1S-A70V)", "setting": "[5]", "result": 2.4, "unit": "fold"},
      {"measurement": "relative IC50 (IC50mut/IC50 G1S-A70V)", "setting": "[6]", "result": 6.7, "unit": "fold"},
      {"measurement": "relative IC50 (IC50mut/IC50 G1S-A70V)", "setting": "[7]", "result": 2.7, "unit": "fold"},
      {"measurement": "relative IC50 (IC50mut/IC50 G1S-A70V)", "setting": "[8]", "result": 1.1, "unit": "fold"},
      {"measurement": "relative IC50 (IC50mut/IC50 G1S-A70V)", "setting": "[9]", "result": "> 100", "unit": "fold"},
      {"measurement": "relative IC50 (IC50mut/IC50 G1S-A70V)", "setting": "[10]", "result": 1.6, "unit": "fold"},
      {"measurement": "relative IC50 (IC50mut/IC50 G1S-A70V)", "setting": "[11]", "result": 0.6, "unit": "fold"},
      {"measurement": "relative IC50 (IC50mut/IC50 G1S-A70V)", "setting": "[12]", "result": 0.8, "unit": "fold"},
      {"measurement": "relative IC50 (IC50mut/IC50 G1S-A70V)", "setting": "[13]", "result": 1, "unit": "fold"},
      {"measurement": "relative IC50 (IC50mut/IC50 G1S-A70V)", "setting": "[14]", "result": 2.3, "unit": "fold"},
      {"measurement": "relative IC50 (IC50mut/IC50 G1S-A70V)", "setting": "[15]", "result": 0.6, "unit": "fold"},
      {"measurement": "relative IC50 (IC50mut/IC50 G1S-A70V)", "setting": "[16]", "result": 7, "unit": "fold"},
      {"measurement": "relative IC50 (IC50mut/IC50 G1S-A70V)", "setting": "[17]", "result": 1.6, "unit": "fold"},
      {"measurement": "relative IC50 (IC50mut/IC50 G1S-A70V)", "setting": "[18]", "result": 1.6, "unit": "fold"}
    ]}
  ]
}
